The text below walks through data of US20250002610A1 (Genmab, published 2025).

Experiment [1] addresses T1, human DR4 (Death Receptor 4), cell surface expressed on human tumor cell lines (human, UniProt O00220 24-468).
T1 construct: also called TNFRSF10A; TRAIL-R1
T1 sequence: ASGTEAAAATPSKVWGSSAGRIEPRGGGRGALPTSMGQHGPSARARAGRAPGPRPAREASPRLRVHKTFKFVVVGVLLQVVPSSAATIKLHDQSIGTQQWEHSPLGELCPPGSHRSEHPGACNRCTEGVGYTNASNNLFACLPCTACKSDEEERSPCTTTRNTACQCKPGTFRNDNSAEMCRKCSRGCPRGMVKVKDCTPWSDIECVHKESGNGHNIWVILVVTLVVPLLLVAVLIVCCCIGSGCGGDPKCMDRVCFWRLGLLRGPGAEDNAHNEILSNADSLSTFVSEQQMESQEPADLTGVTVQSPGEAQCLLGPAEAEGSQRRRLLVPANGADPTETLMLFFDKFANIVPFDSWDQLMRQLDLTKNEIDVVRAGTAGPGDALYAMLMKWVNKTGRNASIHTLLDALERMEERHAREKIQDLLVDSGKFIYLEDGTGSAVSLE
In words: flow cytometry, MDA-MB-231 cells, N = 1; MDA-MB-231 cells, up to 90 µg/mL, N = 1. In general terms: A flow cytometer gives signals particle by particle.

Experiment [2] addresses T1, human DR4 (Death Receptor 4), cell …. As to the kind of experiment: flow cytometry, MDA-MB-231 cells, N = 2; MDA-MB-231 cells, up to 90 µg/mL, N = 2.
The target is the same in experiment [3]. As to the kind of experiment: flow cytometry, MDA-MB-231 cells, average ± SEM; MDA-MB-231 cells, up to 90 µg/mL, average of N = 2.
Experiment [4] shares this target. In words: flow cytometry, MDA-MB-231 cells, N = 1.
The target is the same in experiment [5]. In words: flow cytometry, MDA-MB-231 cells, N = 2.
The target is the same in experiment [6]. In words: flow cytometry, MDA-MB-231 cells, average ± SEM.
Experiment [7] shares this target. In words: flow cytometry on OPM-2 cells (endogenous DR4), gMFI PE. How it is done: Immunol. […] Human lung fibroblasts and CAFs (50,000 cells/well) were seeded in 96-Well round bottom plates (Greiner Bio-one, Cat #650101). Antibody dilutions were prepared using fluorescence-activated cell sorting (FACS) buffer, consisting of phosphate buffer saline (PBS, Lonza, Cat #BE17-517Q)+1% Bovine Serum Albumin (BSA, Roche, Cat #10735086001)+0.02% Sodium Azide (Bio-World, Cat #41920044-3). Plates were centrifuged, supernatant was removed, cells were resuspended in 50 μL of human Fc Block (BD, Cat #564220, diluted 1:100 in FACS buffer) and 50 μL of viability stain TO-PRO-3 Iodide (Thermo Fisher, Cat #T3605, diluted 1: 25,000 in FACS buffer), and incubated for 15 min at 4° C. Plates were washed three times with FACS buffer. […] Antibody binding to viable cells (TO-PRO-3 negative) was analyzed by flow cytometry on a FACSCelesta™ (BD biosciences) and data were processed using FlowJo_v10.8.1 (FlowJo LLC). Geomean fluorescence intensity, gMFI, was determined and visualized using GraphPad Prism. Binding curves were analyzed using nonlinear regression analysis. […]
Binding of DR4-specific antibodies BisG1-b12-FEAL/DR4-T1014A04-FEAR, BisG1-b12-FEAL/DR4-chCTB007-FEAR, IgG1-DR4-chCTB007-FEAR and IgG1-DR4-T1014A04-FEAR to cell surface expressed human DR4 was analyzed by flow cytometry using the human cancer cell line OPM-2 (DSMZ, Cat #ACC 50), which endogenously expresses DR4.

B1: BisG1-b12-FEAL/DR4-T1014A04-FEAR (bispecific antibody, human IgG1, kappa, lambda)
heavy 1: QVQLVQSGAEVKKPGASVKVSCQASGYRFSNFVIHWVRQAPGQRFEWMGWINPYNGNKEFSAKFQDRVTFTADTSANTAYMELRSLRSADTAVYYCARVGPYSWDDSPQDNYYMDVWGKGTTVIVSSASTKGPSVFPLAPSSKSTSGGTAALGCLVKDYFPEPVTVSWNSGALTSGVHTFPAVLQSSGLYSLSSVVTVPSSSLGTQTYICNVNHKPSNTKVDKRVEPKSCDKTHTCPPCPAPEFEGGPSVFLFPPKPKDTLMISRTPEVTCVVVAVSHEDPEVKFNWYVDGVEVHNAKTKPREEQYNSTYRVVSVLTVLHQDWLNGKEYKCKVSNKALPAPIEKTISKAKGQPREPQVYTLPPSREEMTKNQVSLTCLVKGFYPSDIAVEWESNGQPENNYKTTPPVLDSDGSFLLYSKLTVDKSRWQQGNVFSCSVMHEALHNHYTQKSLSLSPG
light 1: EIVLTQSPGTLSLSPGERATFSCRSSHSIRSRRVAWYQHKPGQAPRLVIHGVSNRASGISDRFSGSGSGTDFTLTITRVEPEDFALYYCQVYGASSYTFGQGTKLERKRTVAAPSVFIFPPSDEQLKSGTASVVCLLNNFYPREAKVQWKVDNALQSGNSQESVTEQDSKDSTYSLSSTLTLSKADYEKHKVYACEVTHQGLSSPVTKSFNRGEC
heavy 2: EVQLVQSGADVKRPGASVKVSCKISGDSFNAYFIHWVRQAPGQGLEWMGWFNPDSGTADSAQKFHGRVTMTRDTSSSTAFLELSRLRSDDTAVYYCVRQHRGNTFAPWGRGTMVTVSSASTKGPSVFPLAPSSKSTSGGTAALGCLVKDYFPEPVTVSWNSGALTSGVHTFPAVLQSSGLYSLSSVVTVPSSSLGTQTYICNVNHKPSNTKVDKRVEPKSCDKTHTCPPCPAPEFEGGPSVFLFPPKPKDTLMISRTPEVTCVVVAVSHEDPEVKFNWYVDGVEVHNAKTKPREEQYNSTYRVVSVLTVLHQDWLNGKEYKCKVSNKALPAPIEKTISKAKGQPREPQVYTLPPSREEMTKNQVSLTCLVKGFYPSDIAVEWESNGQPENNYKTTPPVLDSDGSFFLYSRLTVDKSRWQQGNVFSCSVMHEALHNHYTQKSLSLSPG
light 2: QSVLTQPPSASGSPGQSVTISCTGTTSDVGGYNYVSWYQQHPGKAPKLMIYGVNQRPSGVPDRFSGSKSGNTASLTVSGLQAEDEADYYCSSYAGSNNWVFGGGTKLTVLGQPKAAPSVTLFPPSSEELQANKATLVCLISDFYPGAVTVAWKADSSPVKAGVETTTPSKQSNNKYAASSYLSLTPEQWKSHRSYSCQVTHEGSTVEKTVAPTECS
notes: Fab-arm exchange of IgG1-b12-FEAL and IgG1-DR4-T1014A04-FEAR
Take B1: the EC50 came out at 4.33 µg/mL in experiment [1], 6.36 µg/mL in experiment [2] and 5.35 µg/mL in experiment [3].

B2: IgG1-DR4-chCTB007-FEAR (antibody, V domains shown)
VH: EVQLQQSGAELVKPGASVKLSCTASGFNIKDTYMHWVKQRPEQGLEWIGRIDPANGNTKYDPKFQGKATITADTSSNTAYLQLSSLTSEDTAVYYCAYYYVSNAWFTYWGQGTLVTVSA
VL: DIQMTQSPASLSVSVGETVTITCRASENIYSNLEWYQQKQGKSPQLLVYAATNLADGVPSRFSGSGSGTQYSLKINSLQSEDFGSYYCQHFWGTWTFGGGTKLEIKR
notes: Prior art DR4 clone (US20090136503A1)
On to B2, for which the EC50 in experiment [4] amounted to 0.04 µg/mL; in experiment [5], 0.08 µg/mL; in experiment [6], 0.06 µg/mL. The “Max MFI (at 90 µg/mL)” value in experiment [4] amounted to 3750 MFI; in experiment [5], 3480 MFI; in experiment [6], 3620 MFI. In addition, the “EC50 (read off the curve)” value in experiment [7] was about 0.05 µg/mL.

For orientation: EC50 means the concentration needed to bring the measured effect to its halfway point. Broadly, the EC50 (read off the curve) is the midpoint of the concentration-response curve. A high value points to a less potent agent.
